According to publication PMC8000184, “Structural Insights into a Bifunctional Peptide Methionine Sulfoxide Reductase MsrA/B Fusion Protein from Helicobacter pylori” (Antioxidants, 2021):

How the values were obtained:
[1] = tested on: CN(C)c1ccc(N=Nc2ccc(S(=O)(=O)N[C@@H](CC[S@+](C)[O-])C(=O)O)cc2)cc1; assay: DTT-dependent HPLC assay of dabsyl-Met; type: biochemical, Helicobacter pylori; details: 20 mM DTT, 50 mM sodium phosphate pH 7.5, 50 mM NaCl, 37 °C, Met-S-O, methods dabsyl-Met-S-O, MsrA site
[2] = tested on: CN(C)c1ccc(N=Nc2ccc(S(=O)(=O)N[C@@H](CC[S@@+](C)[O-])C(=O)O)cc2)cc1; assay: DTT-dependent HPLC assay of dabsyl-Met; type: biochemical, Helicobacter pylori; details: 20 mM DTT, 50 mM sodium phosphate pH 7.5, 50 mM NaCl, 37 °C, Met-R-O, methods dabsyl-Met-R-O, MsrB site

Question: “HpMsrAB (WT) (Helicobacter pylori 26695)” was tested. Which Km [1] did it give?
Answer: Its Km is 170 ± 60 µM.

Question: And the kcat [1]?
Answer: Its kcat is 0.17 ± 0.0217 s⁻¹.

Question: And the kcat/Km [1]?
Answer: The kcat/Km was 1000 ± 117 M⁻¹ s⁻¹.

Question: What about the Km [2] of the same substance?
Answer: The Km was 50 ± 20 µM.

Question: And the kcat [2]?
Answer: Its kcat is 0.157 ± 0.00667 s⁻¹.

Question: What about the kcat/Km [2] of the same substance?
Answer: The kcat/Km was 3130 ± 133 M⁻¹ s⁻¹.
